In patent US20240059799A1 (Pfizer, published 2024):

Key:
recombinant human TL1A [1] = target: T1, recombinant human TL1A (human, UniProt O95150 71-251); assay: cell-based or functional assay
T1 chain: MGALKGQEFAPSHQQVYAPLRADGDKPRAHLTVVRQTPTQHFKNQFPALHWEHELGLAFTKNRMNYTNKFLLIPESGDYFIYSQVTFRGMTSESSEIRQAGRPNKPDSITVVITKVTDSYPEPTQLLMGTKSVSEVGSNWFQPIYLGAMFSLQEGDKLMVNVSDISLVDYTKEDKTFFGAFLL

recombinant human TL1A [2] = target: T1, recombinant human TL1A; assay: competition ELISA, coated TL1A, competitor bio-TL1A-0002
Description: For this competition ELISA assay procedure, 96-well high binding plates (Corning, product number 3590) were coated with 1 μg/mL recombinant TL1A in 100 μL/well in Phospate Buffered Saline (PBS) overnight at 4° C. Plates were then blocked in PBS+0.02% casein solution and washed with PBS+0.05% Tween-20 following standard ELISA protocol. […] Plates were washed with PBS+0.05% Tween-20 following standard ELISA protocol, and Streptavidin-HRP (Southern Biotech, product number 7100-05) diluted to 1:10,000 in assay buffer was added to plates and incubated for 25-30 minutes at room temperature. Next, the plates were washed with PBS+0.05% Tween-20 following standard ELISA protocol, and then TMB substrate (BioFX Laboratories, catalog number TMBW-0100-01) was added to plates. Reactions were stopped after approximately 5 minutes by adding 0.18 M ortho-phosphoric acid to each well and absorbance was read at 450 nm.

recombinant human TL1A [3] = target: T2, recombinant human TL1A (human, UniProt O95150 71-251); assay: competition ELISA vs bio-TL1A-0002
T2 construct: homotrimer; biotinylated for SPR capture; the ELISA paragraphs say only 'recombinant TL1A'; also called TNFSF15
T2 chain: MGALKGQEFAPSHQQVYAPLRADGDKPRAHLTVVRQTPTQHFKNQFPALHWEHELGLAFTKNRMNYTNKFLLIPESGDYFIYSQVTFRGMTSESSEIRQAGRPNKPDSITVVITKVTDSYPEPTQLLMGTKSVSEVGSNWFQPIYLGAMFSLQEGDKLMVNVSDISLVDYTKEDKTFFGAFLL

B1: TL1A-0042 (antibody, human IgG1, kappa, V domains shown)
VH: QVQLVQSGAEVKKPGASVKVSCKASGYDFTYYGISWVRQAPGQGLEWMGWISTYNGNTHYARMLQGRVTMTTDTSTRTAYMELRSLRSDDTAVYYCARENYYGSGAYRGGMDVWGQGTTVTVSS
VL: DIQMTQSPSSLSASVGDRVTITCRASQSVSSYLAWYQQKPGKAPKLLIYDASNRATGVPSRFSGSGSGTDFTLTISSLQPEDFATYYCQQRSNWPWTFGQGTKVEIKR
notes: parental heavy chain with IGKV1-39*01 light chain; human IgG1 effector-function-minimized/kappa
Q: Which “TF-1 NF-κB reporter cell bioassay IC50” value (recombinant human TL1A [1]) does the source give for B1 here?
A: Its value is 25.9 nM.

Q: What about the “TF-1 NF-κB reporter cell bioassay, Bioactivity relative to TL1A-0002” value (recombinant human TL1A [1]) of the same binder?
A: The value was 0.7 fold.

Q: What about the “Whole blood IFNγ assay IC50” value (recombinant human TL1A [1]) of the same binder?
A: Its value is 0.748 nM.

Q: What about the “Whole blood IFNγ assay, Bioactivity relative to TL1A-0002” value (recombinant human TL1A [1]) of the same binder?
A: Its value is 0.9 fold.

Q: And the “Bioactivity relative to TL1A-0002” value (recombinant human TL1A [2])?
A: The value was 0.8 fold.

Q: And the IC50 (recombinant human TL1A [2])?
A: Its IC50 is 4.2 nM.

B2: TL1A-0266 (antibody, human IgG1, kappa, V domains shown)
VH: QVQLVQSGAEVKKPGASVKVSCKASGYDYTYYGISWVRQAPGQGLEWMGWISTYNTNTHYAPSLQGRVTMTTDTSTSTAYMELRSLRSDDTAVYYCARESYYGSGAFRGGMDVWGQGTTVTVSS
VL: DIQMTQSPSSLSASVGDRVTITCRASQSVSSYLAWYQQKPGKAPKLLIYDASNRATGVPSRFSGSGSGTDFTLTISSLQPEDFATYYCQQRSNWPWTFGQGTKVEIKR
notes: human IgG1 effector-function-minimized/kappa
Q: Which results are given for B2?
A: TF-1 NF-κB reporter cell bioassay IC50 (recombinant human TL1A [1]): 37 nM; TF-1 NF-κB reporter cell bioassay, Bioactivity relative to TL1A-0002 (recombinant human TL1A [1]): 1.1 fold; Whole blood IFNγ assay IC50 (recombinant human TL1A [1]): 0.745 nM; Whole blood IFNγ assay, Bioactivity relative to TL1A-0002 (recombinant human TL1A [1]): 0.9 fold; Bioactivity relative to TL1A-0002 (recombinant human TL1A [2]): 1.3 fold; IC50 (recombinant human TL1A [2]): 6.6 nM

B3: TL1A-0025 (antibody, V domains shown)
VH: QVQLVQSGAEVKKPGASVKVSCKASGYDFTYYGISWVRQAPGQGLEWMGWISTYNGNDHYADSLQGRVTMTTDTSTRTAYMELRSLRSDDTAVYYCARENYYGSGAYRGGMDVWGQGTTVTVSS
VL: EIVLTQSPATLSLSPGERATLSCRASQSVSSYLAWYQQKPGQAPRLLIYDASNRATGIPARFSGSGSGTDFTLTISSLEPEDFAVYYCQQRSNWPWTFGQGTKVEIKR
Q: Which results are given for B3?
A: Bioactivity relative to TL1A-0002 (recombinant human TL1A [3]): 1.6 fold; IC50 (recombinant human TL1A [3]): 7.2 nM

B4: TL1A-0250 (antibody, IgG1, V domains shown)
VH: QVQLVQSGAEVKKPGASVKVSCKASGYDFTYYGISWVRQAPGQGLEWMGWISTYNTVTHYAPSLQGRVTMTTDTSTSTAYMELRSLRSDDTAVYYCARESYYGSGAFRGGMDVWGQGTTVTVSS
VL: DIQMTQSPSSLSASVGDRVTITCRASQSVSSYLAWYQQKPGKAPKLLIYDASNRATGVPSRFSGSGSGTDFTLTISSLQPEDFATYYCQQRSNWPWTFGQGTKVEIKR
notes: IgG1/kappa
Q: With B4 as the binder, how does the “fold reduction of TL1A binding properties compared to TL1A-0002” value (recombinant human TL1A [3]) read?
A: The value was over 300 fold.

B5: TL1A-0195 (antibody, IgG1, V domains shown)
VH: QVQLVQSGAEVKKPGASVKVSCKASGYDFTYYGISWVRQAPGQGLEWMGWISTYNGNTHYARMLQGRVTMTTDTSTRTAYMELRSLRSDDTAVYYCAREQYYGSGAHRGGMDVWGQGTTVTVSS
VL: EIVLTQSPATLSLSPGERATLSCRASQSVSSYLAWYQQKPGQAPRLLIYDASNRATGIPARFSGSGSGTDFTLTISSLEPEDFAVYYCQQRSNWPWTFGQGTKVEIKR
notes: IgG1/kappa variant of TL1A-0002
Q: Which “Bioactivity relative to TL1A-0002” value (recombinant human TL1A [3]) does the source give for B5 here?
A: The value was 1.8 fold.

Q: What about the IC50 (recombinant human TL1A [3]) of the same binder?
A: Its IC50 is 8.2 nM.

B6: TL1A-0197 (antibody, IgG1, V domains shown)
VH: QVQLVQSGAEVKKPGASVKVSCKASGYDFTYYGISWVRQAPGQGLEWMGWISTYNGNTHYARMLQGRVTMTTDTSTRTAYMELRSLRSDDTAVYYCARESYYGSGAFRGGMDVWGQGTTVTVSS
VL: EIVLTQSPATLSLSPGERATLSCRASQSVSSYLAWYQQKPGQAPRLLIYDASNRATGIPARFSGSGSGTDFTLTISSLEPEDFAVYYCQQRSNWPWTFGQGTKVEIKR
notes: as for B5
Q: Which results are given for B6?
A: Bioactivity relative to TL1A-0002 (recombinant human TL1A [3]): 1.9 fold; IC50 (recombinant human TL1A [3]): 8.7 nM

B7: TL1A-0196 (antibody, IgG1, V domains shown)
VH: QVQLVQSGAEVKKPGASVKVSCKASGYDFTYYGISWVRQAPGQGLEWMGWISTYNGNTHYARMLQGRVTMTTDTSTRTAYMELRSLRSDDTAVYYCARESYYGSGEYRGGMDVWGQGTTVTVSS
VL: EIVLTQSPATLSLSPGERATLSCRASQSVSSYLAWYQQKPGQAPRLLIYDASNRATGIPARFSGSGSGTDFTLTISSLEPEDFAVYYCQQRSNWPWTFGQGTKVEIKR
notes: as for B5
Q: How did the “Bioactivity relative to TL1A-0002” value (recombinant human TL1A [3]) turn out when B7 was run?
A: Its value is 2.7 fold.

Q: What about the IC50 (recombinant human TL1A [3]) of the same binder?
A: Its IC50 is 11.9 nM.
